Data on 24 sequences can be found in the DeepSol protein solubility set.

The series is described as follows: soluble on expression in E. coli; label from the status in PepcDB or PDB records.
On to “MKTLLYQKVYDQLKLSIQEGKIPVGSKMPTENELMAQFDVSSITLKKALELLKKDGYISRRPRVGTFVINDSPNSEQIETRKFDKPLFGCIMTNFDDTFGTILLSGMLEHSDSKAHIIVKKSLGDTEREEEILQEFIEMNVAGILILPASSKFVSPTLLELASQKFPLVVIDRTLEGLPISSISSDNTEAGRIITEKLFELGHKHIGMITSTSPVSTLDSRVNGFIRGHASFHTAFHSDYVFREIESVMPNSTVSIQTDIDKIARFLETHPEITALVATEYNIALLIKQACNKLGKSIPTNLSVVCFDHPDNFFDTSAFQFTHIKQAQYEIGVKAVDMLLNQVLKPDTINKETLPPLLVEGDSVEPLKSTSK”, for which the “soluble on expression in E. coli” value is recorded as “not soluble”.
The value for “MKTPQGNTSASRREVDTSMRNRFEFAGSSLRDRIGSILSMDQTPRPATRANIFMGRTPTPARHLPESRRMFVPDYTSTPAPTAPRQEFRFEDLSRIVAPPIEQTFIQLDSDGELTLPAESSIAVSPPPRPSSEPLRHLSQVSLSARPASTEPVRRDVHWRVHPSAKIRKCTVPKTPSFARPTKSWLNRVNRED” was “not soluble”; that for “MKTPRLPIAIQQAVMRRLRENLAQANLKLDRHYPEPKLVYTQRGTSAGTAWLESYEIRLNPVLLLENIDTFIAEVVPHELTHLLVWKHFGRKAPHGKEWKWMMESVLGVPARRTHQFALQSVRRNTFPYHCQCQQHQLTVRRHNRVVRGEAVYRCVHCGEPLVAGLEHHHHHH” was “not soluble”; that for “MKTTPDILDQIRVHGADAYPEEGCGFLLGTVTDDGDNRVAALHRATNRRSEQRTRRYELTADDYRAADAAAQEQGLDVVGVYHSHPDHPARPSATDLEEATFPGFTYVIVSVRDGAPEALTAWALAPDRSEFHREDIVRPDPEAPLEHHHHHH” was “soluble”.
Turning to “MKTVMLMLTSLLMAGCSVLGKREAAEPPYELLKHDGAFEVRRYGPMVIAETILDEKSYSAASGKGFNRLAGYIFGKNRSKTSISMTAPVLQERSSEKISMTAPVLQQPQKGGWSMAFVLPEGFTLQSAPEPLDPEVKLRELPPSTIAVVTFSGLHSAANLEKYSRQLQAWLKKQGYRALSEPKLASYDPPWTIPFLRRNEVQIRIEPDHGESGKELEHHHHHH”, the “soluble on expression in E. coli” value is “soluble”.
On to “MKVAGTSAPPETAPAASRPGLRELKKQRTRDLLLRSALELFTERGYEETTVDDIAEAADVSQRTFFRYFASKEDAAFFVARLAESHFVRAVLARPPEEAPLDALRRALAESWSTIGEAVEQLVPLELHMRFYRVIESTPALLAAHLRRATELEEEIARVVAVREGLDVDTDPRPRVIVAVFGAVMRVTERIWSARDDASLAALRDLTADYLDQVAPALTGNWRRAET”, for which the “soluble on expression in E. coli” value was “soluble”.
Take “MKVELTAIEARVIGCLIEKEVTTPDQYPLSLNALTNASNQKSNREPVMALSESDVLDAVDALIERRLVSDESAFNSRVSKYQHRFCNTEFGDLKLSEQEKGIICCMLLRGAQTPGEIRTRTNRLATFHDVKEVEAVLEHLASEEKGPLVVKLPREAGKRESRYMHLFCGEVDVSAMAAAVPATSSSSVRIAQLEQEVAELREELDALKAQVESLLS”: the “soluble on expression in E. coli” value is recorded as “not soluble”.
Take “MKVGIIMGSVRAKRVCPEIAAYVKRTIENSEELIDQKLKIQVVDLQQIALPLYEDDDELIPAQIKSVDEYADSKTRSWSRIVNALDIIVFVTPQYNWGYPAALKNAIDRLYHEWHGKPALVVSYGGHGGSKCNDQLQEVLHGLKMNVIGGVAVKIPVGTIPLPEDIVPQLSVHNEEILQLLASCIETTRNK”: the “soluble on expression in E. coli” value is given as “soluble”.
Turning to “MKVKCEECGETYTLNDGEDPDDYICECGGKLKRETFLRRTALGVGVFSIP”, the “soluble on expression in E. coli” value is “not soluble”.
The value for “MKVKEAMNPEIITVSPETRPLEAFEKMYKHGVRRLFVLEDDGKPVGVVSYTDLIGVLGTIKPDSEHPERDLKVRDIMVDEVITISADDNIEDAANLMLRADISGLLVMDDERPVGVITKTDICRLVAAEILVPS” was “not soluble”.
“MKWTVQQLRRFQHKEMAIDETVDVSDLKQIDTLIRDISPVHVQGKADVGSTKFTFHLTLSGTMVLPCSRTLVDVAYPFSIQTTETFFADGSGIVETDEDTHMVAGDTIDLNPIIRELILLEIPLQLIAEGPVAGGAPQHGEGWDVLSEEEWEKAMQEREKKVDPRLAGLAKFFEEKREE”: the “soluble on expression in E. coli” value is “not soluble”.
For the sequence “MKYGYFDNDNREYVITRPDVPAPWTNYLGTEKFCTVISHNAGGYSFYNSPEYNRVTKFRPNATFDRPGHYVYLRDDDSGDYWSISWQPVAKSLDEAQYQIRHGLSYSKFQCDYNGIHARKTLFVPKGEDAEIWDVVIKNTSDQVRTISAFSFVEFSFSHIQSDNQNHQMSLYSAGTAYRPGLIEYDLYYNTDDFEGFYYLASTFDPDSYDGQRDRFLGLYRDEANPLAVEQGRCSNSAQTCYNHCGSLHKQFTLQPGEEIRFAYILGIGKGNGERLREHYQDVANIDAAFAAIKAHWDERCAKFQVKSPNQGLDTMINAWTLYQAETCVVWSRFASFIEVGGRTGLGYRDTAQDAISVPHANPEMTRKRIVDLLRGQVKAGYGLHLFDPDWFDPEKEDVAPSKSPTVVPTPSDEDKIHGIKDTCSDDHLWLIPTICKYVMETGETSFFDQMIPYADGGEASVYEHMKAALDFSAEYVGQTGICKGLRADWNDCLNLGGGESSMVSFLHFWALQEFIDLAKFLGKDQDVNTYTEMAANVREACETHLWDDEGGWYIRGLTKNGDKIGTAQQQEGRVHLESNTLAVLSGLASQERGEQAMDAVDEHLFSPYGLHLNAPSFSTPNDDIGFVTRVYQGVKENGAIFSHPNPWAWVAETKLGRGDRAMKFYDALNPYNQNDIIEKRIAEPYSYVQFIMGRDHQDHGRANHPWLTGTSGWAYFAVTNYILGVQSGFTGLSVDPCIPSDWPGFEVTRQWRGATYHIQVENPDHVSKGVKSITLNGAPIQGRIPPQAQGSDNQVVVVLGHHHHHH”, the “soluble on expression in E. coli” value is reported as “soluble”.
The value for “MKYIEPHFISFTQHTLKSQLIPKSFHGMKILQFSDLHLGYYFSLQHLSQVVSKINAVNPDIVLFTGDLIDNYQTYTDTPFVASILKNIQAPFGKFAIYGNHDHGGYGTEYYEHIMRESGFELLLNSKKRIRLMDNSEISIFGLDDILLGKPKIEKTLQHARQNTYNIVLVHEPDIAPQISKYPINLQLSGHSHGGQVQIPFLGAIITPSLAKDYIEGFYTMQDLTLYVNRGLGRTRVPFRFMSKPEITIFTLQHSLEHHHHHH” was “not soluble”; that for “MKYPFYYCCDNLDIKSISVIGDFNNWDGGKNILKRHDDGTWMTEIELSPGKYRYKFLINDSILFNDPNALIYTYDDKGGTASFIIIDESNKRIINTKPASLNIESYSFLSVDKELSYCENGERKCYKDKHSSIMLKIGFSDITGLHTVNAIWYAPNNEIHEIQESVLNDGEKNENRKNEALFQININDDTIAGEWKLQIFINGSLALEDSFTVELKQPEVLDKTALDDAAMLSADLEVPDFLIEEDMQNEFEAPEFEVESNLQTNAEKEEISEEDLLGLFDDIKEIDMPEKDTSGNQKTPAPDETEMPADGNIMNLFDEIRISELKDEKAQDTENNTESTSKEAEESDSAIDELLELREFIDSSQNSEKDSIESSGGKSGEEANEEDISDIFIDIKNRTD” was “not soluble”; that for “MKYQKLENQEANWKWIYLIRKHREGENITRYEERSLQEAKAQELLESQNYPEKIEEWIKNHLSPALPIKLDQAIRARRKRFFNGEKQHTKKKSIDLEYAVWLRLSKYSRKMKMTLSETITYMIDERESKAQFENQMAAMKTSLKNLLK” was “not soluble”.
As to “MLAAAHKAGGTFAAESILILRNRLSGVADILADFPDDVPVYVAEAPVLDGIVGFHLHRGILALGRRVRDDGLEQMTAALPASSLVLVGCGISNHDNLGAMFRNAAAFYADAVLLDETCCDPLYRKALRVSVGSVLSVPYHRGGGAVEMLERLSEEGFAIWGLSPDGKTEIRDIPRSERMALVIGTEGEGLPQSVLSRFQTARIAQSPQVDSLNAGTASGLALYQMAGVMGRV”, the “soluble on expression in E. coli” value was “not soluble”.
Regarding “MLAAFQQQQTRKFSPITNTSASCLNMQPNPPKISIAPSVISVIGVHMEKHKLKIKTGQNIVLSASILPIQATNKELIWSNMNSDIITIYPKGDTVTITGKSAGKAVVIVTTAEGKFRDLCVIHVQPYMTNPK”, the “soluble on expression in E. coli” value is “not soluble”.
In the case of “MLAAGEGKRMGACKPLLPLGASTVLAHVAKTLLPAINGPLVVVTGHHGDAVTAEALRLSLETAENTTPQDGMFSSVRTGIAHIVGRVDGVLVLPADIPFVRTATCALVVEAFRRHRAAVTYPTLCGERGHPPLLDADTMRAVLASSGDGGLRGVLLALERQGGTTHDVAVADEGIVTDMDTPADHAQLVARHPLRHIPTPREREALLEMAGTPARVRAHCRMVARAALAMAAHLEATRRGFISPFARQSAPHGISTSGAHAEPRSVPASTTTHAVHAEGNTTLPHTATAHVACPPPDVTTGPMPTCQPGHMPDHMPGTARDAAQQAPAATASPQRLDRPLIHAAATLHDICKGTQRHEAAGGALLTRHGFPEVGSIIAAHRDIAPQAGPEIDEAALVMLADKYVRGVSLIPVEERFDERLREWAHRPDVACDIAARKARVLMVRDLFESETATELFPLLQRKVRRGTFLEHHHHHH”, the “soluble on expression in E. coli” value is reported as “not soluble”.
On to “MLAERGANITGLDISGPMLQQGREKAQATGVDDRVEFMRGDAARLPFPDDHFDTVFAMRFFHLADTPAAFLAEMRRVSKEQVFFDTFNRFSTRSIYNWALPMGSRLYSRWEIDRLLDGAGLELTDANHDWLLPYGFYRKIPNELAASFRSLDTALGGTPLGEKLASVSYWNTHVLEHHHHHH”, for which the “soluble on expression in E. coli” value was “not soluble”.
“MLALPAEFEQFHWMVDMVQNVDMGLIVINRDYNVQVWNGFMTHHSGKQAHDVIGKSLFEIFPEIPVEWFKLKTKPVYDLGCRSFITWQQRPYLFHCRNVRPVTQQAKFMYQNVTLNPMRTPTGAINSLFLSIQDATSEALVSQQASSQ”: the “soluble on expression in E. coli” value is “not soluble”.
As for “MLAQRGTFAECGAEVLAVAMSPGRRHITKPVCEITFGLRESNVLTSTMVLNAGAGVPHDAPASGGTLFGLTDKEVEQMSNFKLLVIHLGGVKNHLIYKARLILRNVNKPCIIICESPVDCEDFAKIGVKTSKVMPSEEDVKTEGHIVDIVSGVIRGETISQEKLDEIIRKVKLALGDALEHHHHHH”, the “soluble on expression in E. coli” value was “soluble”.
As for “MLCASAEVEVFYDTDNNRKSDPAVFWQNPLNRSKFPLLSQIANRYLTTPASSAESERVFSGAGRVSTKLRRKMSTKSLSKSVFLQQNQKVLGFKIGLD”, the “soluble on expression in E. coli” value is recorded as “not soluble”.
On to “MLCFFDPGNFDIGDSVNDVEVKFNRAWTSVIGTKIDFAEKYSINIEGYYKYVFDRGYITADTSTGTITPSFNFDGVGKVWGFDIQLQKLESRYWDGWISYTYTWAKYNDPSGGNNGISNGSTNTINDSWYYPSFHRFHNFNLVLNIKPLLWFNIALRFGFASGQPRRRIDNKIYPYPVLIVNEDNEMVILQKYRRNSWYDENERTPWSFPLDIKFSFFPVNKNGRTSMEIYAAGENMMSLFYSPPGRTTFNQYTGKEDQGSSSGSFDLPIPMVSFGIKWRY”, for which the “soluble on expression in E. coli” value is “not soluble”.
In the case of “MLCHTLISSFNNHIWRFLIMENKMNDNRVPRERVAILIDSGCDVTEELIRQYNMKLLRLHVIYPEKDYSDDLDISPQTVYERFPGEIPHTSTPSPQEVKDMADELKREGYTHVLAFAISSGLSGTYNTMCSVLNEEEELTSFVLDTRNISFGSGVLAVWAAQKLEEGMPYEELVRLLPGKVQDSKILYYMDTLTYLQKGGRIGLVTSIVGNILNLKPIISCNCEGVYYTVAKIRGSKQGMTKLLAEAKDFAGDGPVWFSLLNGNAAAASNEMLKRITEALPEGKHLLSKQIAASLAVHTGPGLLGIGILKNP”, the “soluble on expression in E. coli” value is given as “not soluble”.
